Article PMC7919418 (Genes & Development, 2021)

B1: Nxf2[541–841], recombinant (domain or fragment)
chain: LPSEYVRAVKEVFPQLTTLDGVDLQTNPGQSLQKNFLCDTGAYELVGAFLENYLREFENDEFRHNLYKYYSENSIFTLTCNYNVVQNHQTPKILQRLSKYNRHARNLRNKDYSKASDGVFFGCTYIVEILLQLPRVTHDFHSLQTDVMHYNGKGAVIYVAGLLRDEPPSTRNGHGSKTDIGGVLLGFSRQFVVTFDEANLGLGKRARRLKIANERLHITNPSKTAIRNAFSVNFPDPSERQAEEDSLDVKDHKLLLFQEVTGLISTWVTSIVEEADWDFERALKLFIQKNADHEIPDLAFA

Assays:
[1] = molecular target: Drosophila melanogaster Ctp (residues 1–89), untagged, coexpressed with Panx peptides (Drosophila melanogaster, UniProt Q24117 1-89); assay: SEC-MALS
[2] = molecular target: Ctp expressed in isolation with a His6-SUMO tag (for ITC) (Drosophila melanogaster, UniProt Q24117 1-89); assay: ITC
[3] = molecular target: the molecule itself; assay: SEC-MALS
[4] = molecular target: Nxt1, recombinant (Drosophila melanogaster, UniProt Q9V3H8 1-133); assay: SEC-MALS
[5] = molecular target: B1; assay: SEC-MALS

Row | Binder | stoichiometry N [1] | Kd [2] [nM] | further results
1 | RTATRDAGTQVRLE [Panx peptide residues 467–480 (Panx2)] | 2 Panx peptides per Ctp homodimer | ~140 | –
2 | TLYKNAATQTERRTATRDAGTQVRLE [Panx peptide residues 455–480 (Panx1 + 2)] | 1 Panx peptide per Ctp homodimer | – | –
3 | TLYKNAATQTER [Panx peptide residues 455–466 (Panx1)] | 2 Panx peptides per Ctp homodimer | ~75 | –
4 | His6-Ctp, recombinant, coexpressed in SFiNX complexes (natural protein) MSDRKAVIKNADMSEEMQQDAVDCATQALEKYNIEKDIAAYIKKEFDKKYNPTWHCIVGRNFGSYVTHETRHFIYFYLGQVAILLFKSG | – | – | stoichiometry N [3]: 2
5 | B1 | – | – | binding result [4]: binds
6 | Panx[263–541], recombinant, coexpressed in SFiNX[wild type] (domain or fragment) ASSQNESSKERKLRDTELDYVPVRPDEHFIRPIKFSNLIERRPPQVEFNTVNLSKADKRSLAVARAELVLEQIQQKANKEEPPEFHMVDTICKLPVNESFRNQDCFENPSPICNNMNVVYKFNSTPGTRIDLSKWGLETVPEATKRLLRLLGIDVARLKELQSTVKPSQRILKLKKEQLEQGLAPTEEQETATLYKNAATQTERRTATRDAGTQVRLESKLNGAFWQNPHFDPMNLTQHQSNVMLALQEIYQTLPSATMAVKLSRALAPALAIIKGRQP | – | – | binding result [5]: binds
